Numbered stars: 1 amine (or outer) side, 2 acyl side, 3 side chain; on linkers, the order of the positions; unused ones are H or OH. Square brackets hold non-standard residues; d marks the D form. Side chains are listed from the residue outwards. Ends that are not written are not given here. * marks the point of attachment. C20 diacid = O=C(O)CCCCCCCCCCCCCCCCCCC(=O)*; γGlu = O=C(O)[C@H](CCC(=O)[*:2])N[*:1]; AEEA = NCCOCCOCC(=O)O; Aib = CC(C)(N)C(=O)O
T1: human GIP receptor (human, UniProt P48546 22-466)
T1 sequence (looked up): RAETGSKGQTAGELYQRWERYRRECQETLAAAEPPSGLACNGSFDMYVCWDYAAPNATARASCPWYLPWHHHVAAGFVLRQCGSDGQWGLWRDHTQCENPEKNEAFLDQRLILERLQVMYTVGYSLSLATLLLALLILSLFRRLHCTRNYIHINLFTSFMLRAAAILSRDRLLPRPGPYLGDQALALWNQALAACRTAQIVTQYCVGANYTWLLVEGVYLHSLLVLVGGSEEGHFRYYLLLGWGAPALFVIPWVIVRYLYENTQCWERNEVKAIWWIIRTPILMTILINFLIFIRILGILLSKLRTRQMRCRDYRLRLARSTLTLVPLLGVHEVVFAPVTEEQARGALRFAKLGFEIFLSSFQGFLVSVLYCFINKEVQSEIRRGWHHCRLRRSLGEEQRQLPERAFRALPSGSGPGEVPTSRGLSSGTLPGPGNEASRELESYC


Columns and labels:
human GIP receptor = target: T1, human GIP receptor; test: cell-based or functional assay
human GLP-1 receptor = human GLP-1 receptor (human, UniProt P43220 24-463); test: cell-based or functional assay

Binder	hGIPR cAMP EC50 ratio (human GIP receptor)	hGIPR cAMP Rel EC50 (human GIP receptor) [nM]	hGLP1R cAMP EC50 ratio (human GLP-1 receptor)	hGLP1R cAMP Rel EC50 (human GLP-1 receptor) [nM]
Y[Aib]EGTFTSDYSILLDKIK([AEEA-AEEA-γGlu-C20 diacid])Q[Aib]AFIEYLIEGGPSSGAPPPS-NH2 (N-terminus assumed; SMILES CC[C@H](C)[C@H](NC(=O)[C@H](CC(C)C)NC(=O)[C@H](Cc1ccc(O)cc1)NC(=O)[C@H](CCC(=O)O)NC(=O)[C@@H](NC(=O)[C@H](Cc1ccccc1)NC(=O)[C@H](C)NC(=O)C(C)(C)NC(=O)[C@H](CCC(N)=O)NC(=O)[C@H](CCCCNC(=O)COCCOCCNC(=O)COCCOCCNC(=O)CC[C@H](NC(=O)CCCCCCCCCCCCCCCCCCC(=O)O)C(=O)O)NC(=O)[C@@H](NC(=O)[C@H](CCCCN)NC(=O)[C@H](CC(=O)O)NC(=O)[C@H](CC(C)C)NC(=O)[C@H](CC(C)C)NC(=O)[C@@H](NC(=O)[C@H](CO)NC(=O)[C@H](Cc1ccc(O)cc1)NC(=O)[C@H](CC(=O)O)NC(=O)[C@H](CO)NC(=O)[C@@H](NC(=O)[C@H](Cc1ccccc1)NC(=O)[C@@H](NC(=O)CNC(=O)[C@H](CCC(=O)O)NC(=O)C(C)(C)NC(=O)[C@@H](N)Cc1ccc(O)cc1)[C@@H](C)O)[C@@H](C)O)[C@@H](C)CC)[C@@H](C)CC)[C@@H](C)CC)C(=O)N[C@@H](CCC(=O)O)C(=O)NCC(=O)NCC(=O)N1CCC[C@H]1C(=O)N[C@@H](CO)C(=O)N[C@@H](CO)C(=O)NCC(=O)N[C@@H](C)C(=O)N1CCC[C@H]1C(=O)N1CCC[C@H]1C(=O)N1CCC[C@H]1C(=O)N[C@@H](CO)C(N)=O) [Example 30]	1.5	0.114	0.0331	1.84
Y[Aib]EGTFTSDYSILLDK([AEEA-AEEA-γGlu-C20 diacid])IAQ[Aib]AFIEYLIEGGPSSGAPPPS-NH2 (N-terminus assumed; SMILES CC[C@H](C)[C@H](NC(=O)[C@H](CCCCNC(=O)COCCOCCNC(=O)COCCOCCNC(=O)CC[C@H](NC(=O)CCCCCCCCCCCCCCCCCCC(=O)O)C(=O)O)NC(=O)[C@H](CC(=O)O)NC(=O)[C@H](CC(C)C)NC(=O)[C@H](CC(C)C)NC(=O)[C@@H](NC(=O)[C@H](CO)NC(=O)[C@H](Cc1ccc(O)cc1)NC(=O)[C@H](CC(=O)O)NC(=O)[C@H](CO)NC(=O)[C@@H](NC(=O)[C@H](Cc1ccccc1)NC(=O)[C@@H](NC(=O)CNC(=O)[C@H](CCC(=O)O)NC(=O)C(C)(C)NC(=O)[C@@H](N)Cc1ccc(O)cc1)[C@@H](C)O)[C@@H](C)O)[C@@H](C)CC)C(=O)N[C@@H](C)C(=O)N[C@@H](CCC(N)=O)C(=O)NC(C)(C)C(=O)N[C@@H](C)C(=O)N[C@@H](Cc1ccccc1)C(=O)N[C@H](C(=O)N[C@@H](CCC(=O)O)C(=O)N[C@@H](Cc1ccc(O)cc1)C(=O)N[C@@H](CC(C)C)C(=O)N[C@H](C(=O)N[C@@H](CCC(=O)O)C(=O)NCC(=O)NCC(=O)N1CCC[C@H]1C(=O)N[C@@H](CO)C(=O)N[C@@H](CO)C(=O)NCC(=O)N[C@@H](C)C(=O)N1CCC[C@H]1C(=O)N1CCC[C@H]1C(=O)N1CCC[C@H]1C(=O)N[C@@H](CO)C(N)=O)[C@@H](C)CC)[C@@H](C)CC) [Example 29]	0.536	0.32	0.0671	0.999
Y[Aib]EGTFTSDYSILLK([AEEA-AEEA-γGlu-C20 diacid])KIAQ[Aib]AFIEYLIEGGPSSGAPPPS-NH2 (N-terminus assumed; SMILES CC[C@H](C)[C@H](NC(=O)[C@H](CCCCN)NC(=O)[C@H](CCCCNC(=O)COCCOCCNC(=O)COCCOCCNC(=O)CC[C@H](NC(=O)CCCCCCCCCCCCCCCCCCC(=O)O)C(=O)O)NC(=O)[C@H](CC(C)C)NC(=O)[C@H](CC(C)C)NC(=O)[C@@H](NC(=O)[C@H](CO)NC(=O)[C@H](Cc1ccc(O)cc1)NC(=O)[C@H](CC(=O)O)NC(=O)[C@H](CO)NC(=O)[C@@H](NC(=O)[C@H](Cc1ccccc1)NC(=O)[C@@H](NC(=O)CNC(=O)[C@H](CCC(=O)O)NC(=O)C(C)(C)NC(=O)[C@@H](N)Cc1ccc(O)cc1)[C@@H](C)O)[C@@H](C)O)[C@@H](C)CC)C(=O)N[C@@H](C)C(=O)N[C@@H](CCC(N)=O)C(=O)NC(C)(C)C(=O)N[C@@H](C)C(=O)N[C@@H](Cc1ccccc1)C(=O)N[C@H](C(=O)N[C@@H](CCC(=O)O)C(=O)N[C@@H](Cc1ccc(O)cc1)C(=O)N[C@@H](CC(C)C)C(=O)N[C@H](C(=O)N[C@@H](CCC(=O)O)C(=O)NCC(=O)NCC(=O)N1CCC[C@H]1C(=O)N[C@@H](CO)C(=O)N[C@@H](CO)C(=O)NCC(=O)N[C@@H](C)C(=O)N1CCC[C@H]1C(=O)N1CCC[C@H]1C(=O)N1CCC[C@H]1C(=O)N[C@@H](CO)C(N)=O)[C@@H](C)CC)[C@@H](C)CC) [Example 28]	0.106	1.66	0.00166	32.7
Y[Aib]EGTFTSDYSILLDKIAK([AEEA-AEEA-γGlu-C20 diacid])[Aib]AFIEYLIEGGPSSGAPPPS-NH2 (N-terminus assumed; SMILES CC[C@H](C)[C@H](NC(=O)[C@H](CCCCN)NC(=O)[C@H](CC(=O)O)NC(=O)[C@H](CC(C)C)NC(=O)[C@H](CC(C)C)NC(=O)[C@@H](NC(=O)[C@H](CO)NC(=O)[C@H](Cc1ccc(O)cc1)NC(=O)[C@H](CC(=O)O)NC(=O)[C@H](CO)NC(=O)[C@@H](NC(=O)[C@H](Cc1ccccc1)NC(=O)[C@@H](NC(=O)CNC(=O)[C@H](CCC(=O)O)NC(=O)C(C)(C)NC(=O)[C@@H](N)Cc1ccc(O)cc1)[C@@H](C)O)[C@@H](C)O)[C@@H](C)CC)C(=O)N[C@@H](C)C(=O)N[C@@H](CCCCNC(=O)COCCOCCNC(=O)COCCOCCNC(=O)CC[C@H](NC(=O)CCCCCCCCCCCCCCCCCCC(=O)O)C(=O)O)C(=O)NC(C)(C)C(=O)N[C@@H](C)C(=O)N[C@@H](Cc1ccccc1)C(=O)N[C@H](C(=O)N[C@@H](CCC(=O)O)C(=O)N[C@@H](Cc1ccc(O)cc1)C(=O)N[C@@H](CC(C)C)C(=O)N[C@H](C(=O)N[C@@H](CCC(=O)O)C(=O)NCC(=O)NCC(=O)N1CCC[C@H]1C(=O)N[C@@H](CO)C(=O)N[C@@H](CO)C(=O)NCC(=O)N[C@@H](C)C(=O)N1CCC[C@H]1C(=O)N1CCC[C@H]1C(=O)N1CCC[C@H]1C(=O)N[C@@H](CO)C(N)=O)[C@@H](C)CC)[C@@H](C)CC) [Example 31]	0.456	0.388	0.0708	0.891

From patent US20220048967A1 (published 2022)
